Laboratory results reported in patent publication US20180282410A1 (Hoffmann-La Roche, published 2018).

T1: full-length human Robo 4 (on cells) (human, UniProt Q8WZ75 28-1007)
T1 construct: also called CHO-Robo 4; Robo 4 on HUVECs
T1 sequence: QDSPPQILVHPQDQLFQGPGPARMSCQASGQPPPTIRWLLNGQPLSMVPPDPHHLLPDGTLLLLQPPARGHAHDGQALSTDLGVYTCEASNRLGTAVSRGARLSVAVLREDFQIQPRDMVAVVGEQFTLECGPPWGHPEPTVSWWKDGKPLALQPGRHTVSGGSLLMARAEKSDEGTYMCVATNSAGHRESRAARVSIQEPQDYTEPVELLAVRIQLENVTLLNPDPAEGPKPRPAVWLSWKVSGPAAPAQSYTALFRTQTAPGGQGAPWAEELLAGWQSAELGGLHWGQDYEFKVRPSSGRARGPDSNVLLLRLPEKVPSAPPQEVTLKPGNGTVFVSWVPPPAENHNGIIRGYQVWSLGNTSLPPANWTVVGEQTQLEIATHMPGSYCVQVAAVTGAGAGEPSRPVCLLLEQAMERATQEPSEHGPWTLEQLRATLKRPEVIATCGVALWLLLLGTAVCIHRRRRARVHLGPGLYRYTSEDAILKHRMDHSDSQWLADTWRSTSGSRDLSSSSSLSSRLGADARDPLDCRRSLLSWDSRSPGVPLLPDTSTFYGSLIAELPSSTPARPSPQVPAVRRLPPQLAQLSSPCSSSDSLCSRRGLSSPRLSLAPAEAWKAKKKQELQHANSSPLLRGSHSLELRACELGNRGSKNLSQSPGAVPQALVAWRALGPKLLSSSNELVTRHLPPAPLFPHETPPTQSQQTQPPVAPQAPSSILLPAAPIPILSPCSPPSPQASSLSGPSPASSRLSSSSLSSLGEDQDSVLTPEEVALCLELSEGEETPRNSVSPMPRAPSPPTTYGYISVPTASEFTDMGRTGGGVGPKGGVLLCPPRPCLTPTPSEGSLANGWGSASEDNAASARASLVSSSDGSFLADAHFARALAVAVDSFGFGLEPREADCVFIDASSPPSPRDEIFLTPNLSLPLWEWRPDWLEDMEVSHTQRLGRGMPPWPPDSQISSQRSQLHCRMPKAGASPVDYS

T2: murine (mu) Robo 4 ECD-PreS-Avi-His (mouse)
T2 construct: also called recombinant murine Robo 4; murine Robo 4
T2 chain: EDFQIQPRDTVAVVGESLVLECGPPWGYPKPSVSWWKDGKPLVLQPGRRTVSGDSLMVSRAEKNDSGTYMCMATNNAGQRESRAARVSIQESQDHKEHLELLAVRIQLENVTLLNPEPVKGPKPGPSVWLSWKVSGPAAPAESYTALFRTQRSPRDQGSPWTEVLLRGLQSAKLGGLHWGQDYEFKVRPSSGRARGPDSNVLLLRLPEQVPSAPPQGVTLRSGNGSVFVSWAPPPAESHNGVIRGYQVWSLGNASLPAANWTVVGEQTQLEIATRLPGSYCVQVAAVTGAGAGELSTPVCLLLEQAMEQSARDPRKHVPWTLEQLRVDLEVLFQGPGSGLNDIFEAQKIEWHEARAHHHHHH

T3: recombinant cynomolgus Robo 4 ECD fused to AcTEV protease recognition site, Avi- and 6xHis-tag (cynomolgus)
T3 construct: Biotinylated in the avidity assay
T3 chain: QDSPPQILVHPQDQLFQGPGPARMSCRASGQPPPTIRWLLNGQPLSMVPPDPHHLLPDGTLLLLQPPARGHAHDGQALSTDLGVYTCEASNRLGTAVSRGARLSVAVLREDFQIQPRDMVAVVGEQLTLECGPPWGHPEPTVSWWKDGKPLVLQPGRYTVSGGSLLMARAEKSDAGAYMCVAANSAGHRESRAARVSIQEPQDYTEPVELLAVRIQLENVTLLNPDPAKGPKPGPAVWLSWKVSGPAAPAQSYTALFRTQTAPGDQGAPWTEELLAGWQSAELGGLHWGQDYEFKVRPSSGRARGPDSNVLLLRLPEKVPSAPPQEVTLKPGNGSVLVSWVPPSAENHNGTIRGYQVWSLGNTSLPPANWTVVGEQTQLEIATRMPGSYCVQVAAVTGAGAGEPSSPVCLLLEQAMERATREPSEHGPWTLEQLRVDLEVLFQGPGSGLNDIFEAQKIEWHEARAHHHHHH

B1: 01F09 anti-Robo 4 IgG (antibody, V domains shown)
VH: QIQLQESGPGLVKPSQSLSLTCSVTGYSISSGSLWTWIRQFPGNNLEWMGYISYAGGIDYNPSLTSRISITRDTSRNQFFLQLESVTTQDTATYYCATPGGYPFHFDYWGQGTMVTVSS
VL: QPVLTQSPSASASLGASVKLTCTLNSQFSTYNIGWYQQHRDKPPKYVMFVKGDGGHSKADGIPDRFSGSSSGADRYLTISNIQAEDEAIYFCGADYNNAGQYGCVFGSGTHFTVLG
notes: also called 01F09 IgG
B2: 01F05 anti-Robo 4 IgG (antibody, V domains shown)
VH: QVQLKQSGAELVKPGASVKISCKTSVYTFTYGYMHWVEQKPGQGLEWIGRIDPDSGNSMYNQKFQGRATLTRDKSSSTVYMELRSLTSEDSAVYYCARSMRYSGYRDYALDLWGQGTQVTVSS
VL: QLVLTQSPSASASLGASVKLTCTLSSQHSSYGITWLQQHPDKAPKYVMYLKSDGSHTKGADIPDRFSGSSSGVHRYLSISNVQPEDEAIYFCVTYDSTHVFGSGTQLTVLG
notes: also called 01F05 IgG
B3: 01E06 anti-Robo 4 IgG (antibody, V domains shown)
VH: EVQLVESGGGLSQPGNSLKLSCEASGFTFRNYDMSWVRQAPGKGLEWVAYISSGGGPIYYVDAVKGRFTISRDNAKNLLFLQMNNLRSEDTAVYYCARDLADIGVFDYWGQGTMVTVSS
VL: DFKMTQSPDILSPSLGESVTITCQSSQNIYSNLAWYQQKPGEHPKLLIYTASILADGIPSRFTGSGSGTQFSLKISSLQPDDVANYYCQQYVYYRTFGPGTKLEIK
notes: also called 01E06 IgG
B4: 7G2 anti-Robo 4 IgG (antibody, V domains shown)
VH: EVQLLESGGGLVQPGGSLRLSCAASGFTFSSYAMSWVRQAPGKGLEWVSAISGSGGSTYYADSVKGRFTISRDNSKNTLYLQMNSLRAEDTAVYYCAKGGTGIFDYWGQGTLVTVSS
VL: EIVLTQSPGTLSLSPGERATLSCRASQSVSSSYLAWYQQKPGQAPRLLIYGASSRATGIPDRFSGSGSGTDFTLTISRLEPEDFAVYYCQQGQLPPRTFGQGTKVEIK
notes: also called 7G2 IgG

The binders below were run against T1, full-length human Robo 4 (on cells) (assay: flow cytometry on CHO cells stably expressing full-length human Robo 4).
Procedure: Binding of anti-Robo 4 IgGs was tested on CHO cells stably expressing full-length human Robo 4 (CHO-Robo 4). Briefly, cells were harvested, counted and checked for viability.

EC50	Binder
2.5 nM	B1
6.1 nM	B2
1.1 nM	B3
4.6 nM	B4

Target: T2, murine (mu) Robo 4 ECD-PreS-Avi-His
Experiment: SPR Biacore T100, IgG captured via anti-human Fab, antigen as analyte (affinity)
Procedure: (§1) All surface plasmon resonance (SPR) experiments are performed on a Biacore T100 at 25° C. with HBS-EP as running buffer (0.01 M HEPES pH 7.4, 0.15 M NaCl, 3 mM EDTA, 0.005% Surfactant P20 (Biacore)).
(§2) Anti Robo 4 antibodies were captured for 60 s at 50 nM. Recombinant human, murine and cynomolgus Robo 4 were passed at a concentration range from 0.46-1000 nM with a flow of 30 μl/min through the flow cells over 90 s. The dissociation was monitored for 120 s. Bulk refractive index differences were corrected for by subtracting the response obtained on a reference flow cell. Here, the antigens were flown over a surface with immobilized anti-human Fab specific antibody on which HBS-EP has been injected rather than the antibodies.
(§3) Kinetic constants were derived using the Biacore T100 Evaluation Software (vAA, Biacore), to fit rate equations for 1:1 Langmuir binding by numerical integration.

Kd	koff	kon	Binder
256 nM	0.0307 s⁻¹	120000 M⁻¹ s⁻¹	B1
10.1 nM	0.00031 s⁻¹	30800 M⁻¹ s⁻¹	B2
166 nM	0.0128 s⁻¹	77100 M⁻¹ s⁻¹	B3

Target: T3, recombinant cynomolgus Robo 4 ECD fused …
Experiment: as above
Procedure: as §1, §2, §3

Kd	koff	kon	Binder
474 nM	0.0315 s⁻¹	66600 M⁻¹ s⁻¹	B1
144 nM	0.00191 s⁻¹	13300 M⁻¹ s⁻¹	B2
0.96 nM	8e-05 s⁻¹	80400 M⁻¹ s⁻¹	B3
64.1 nM	0.00116 s⁻¹	18100 M⁻¹ s⁻¹	B4
